The record followed here is the nanobody polyreactivity screen of Harvey et al. (2022).

A short description of the data set: yeast display, Sf9 membrane polyspecificity reagent, FACS + sequencing; frameworks hold sequencing errors. The procedure, abridged: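 Polyreactivity labels are assigned by the sorting gate from which each nanobody was recovered. The gates were low and high (top ~1%), set on anti-HA fluorescence for expression and streptavidin fluorescence for reagent binding. Before sorting, galactose-induced (36–48 hours) yeast display cells were stained for 1 hour at 4 °C with 10% biotinylated, detergent-solubilized Sf9 membrane reagent.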
With “QVQLVESGGGLVQAGGSLRLSCAASGRIFDGYAMGWYRQAPGKESELVAAISSRGGRTYYADSVKGRFTISRDNAKNTVYLQMNSLKPEDTAVYYCAGDDPYGEGDYWGQGTQVTVSS”, the “polyreactivity (PSR sort gate)” value is “low polyreactivity”.

On to “QVQLAESGGRLVQAGGRLRLSCAASGRTSTCYAMGWYRQPPGKERELVAAISYRGGSTYYADSVKGRFTISRDNAKNSVYLHLNSLKPEDTAVYYCAAKWYWRGDYWGQGTQVTVSS”, for which the “polyreactivity (PSR sort gate)” value is “high polyreactivity”.

With “QVQLVESGGGLVQAGGSLRLSCAASGLILSDYVMGWYRQAPGKEREFVAAITSTGGSTYYADSVKGRFTISRDNAKNTVYLQMNSLKPEDTAVYYCAVRIHFPFPRRYYYWGQGTQVTVSS”, the “polyreactivity (PSR sort gate)” value was “high polyreactivity”.

As to “QVQLEESGGGLVQAGGSLRLSCAASGIIFGRYTMGWYREAPGKERELVAAITSSGITYYADSVKGRFTISRDNAKNTVYLQMNSLKPEDTAVYYCAADSPVSVTADDGYWGQGTQVTVSS”, the “polyreactivity (PSR sort gate)” value is given as “low polyreactivity”.

Turning to “QVQLVESGGGLVQAGGSLRLSCAASGSTFHWYTMGWYRPAPGKESELVAAITSGTSTYYADSVKGRFTISRDNSKITVYLQMNSLKPEDTAVYYCNTEGVWSVYGLYDYWGQGTQVTVSS”, the “polyreactivity (PSR sort gate)” value is recorded as “low polyreactivity”.

For the sequence “QVHLVESGGGLVQAGGSLRLSCAASGGIFLDNAMGWYRQAPGKERELVASIRTRTYYADSVKGRFTISRDNAKNTVYLQMNSLKPEDTAVYYCAAAHRRWDGDYNYWGQGTQVTVSS”, the “polyreactivity (PSR sort gate)” value was “high polyreactivity”.

As for “QVQLVESVGRLVQAGGSLRLSCAASGIIFSVNAMGWYRQAPGKERELVAAITYSGGSTYYADSVKGRFTISRDNAKNTVYLQMNSLKPEDTAVYYCATSYYSSGTWSEYYYWCQGTQVTVSS”, the “polyreactivity (PSR sort gate)” value is “high polyreactivity”.

On to “QVQLVESGGGLVQAGGSLRLSCAASGRIFKWYAMGWYRQAPGKERELVAAISRSGGTTYYADSVKGRFTISRDNAKNTVYLQMNSLKPEDTAVYYCATRNIYFSSVDYWGQGTQVTVSS”, for which the “polyreactivity (PSR sort gate)” value is listed as “high polyreactivity”.

As to “QVQLVESGGGLVQAGGSLRLSCAASGRIFVPYAMGWYRQAPGKERELVATITFGGGRTYYADSVKGRFTISRDNAKNTVYLQMNSLKPEDTAVYYCAADYYLWRLPVYAQRSFVRGDYWGQGTQVTVSS”, the “polyreactivity (PSR sort gate)” value is “low polyreactivity”.

“QVQLVESRGGLVQAGGSLRLSCAASGRTVRRYAMGWYRQAAGKARELVASISRGSSTNYADSVKGRFTSSRDNAKNTGYLQMNSLKPEHTAVYYCAALGWSARYRYDYWGQGTQVTVSS”: the “polyreactivity (PSR sort gate)” value is “high polyreactivity”.

On to “QVQLVESGGGLVQAGGSLRLSCAASGSIFTGNTMGWYRQAPGNERELVAAMSRRGGRTYYADSVKGRFTISRDNAKNTVYLQMNSLKPEDPAVYYCAADGWYWTYIVEYWGQGTQVTVSS”, for which the “polyreactivity (PSR sort gate)” value is given as “high polyreactivity”.

Take “QVQLVESGGGLVQAGGSLRLSCAASRIIFSYNPMGWYRQAPGKERELVAASSYGGRTYYAVSVKGRFTISRDNAKNTVDLQMKSLKPEDTAVYYCATRSPHRLYGDYYDYWGLGTQVTVSS”: the “polyreactivity (PSR sort gate)” value is given as “high polyreactivity”.

Regarding “QVQLVESGGGLVQAGGSLRFSCAAYGFIFTQYAMGCYRRAPGKERELVAAISWNGGRTYYADSVNGRFTISRDNEKNTVYLQMNSLKPEDTAVYYCAARIYLSKSFNYWGQGTQVTVSS”, the “polyreactivity (PSR sort gate)” value was “high polyreactivity”.

With “QVQLVESGGGLVQAGGRLRLSCAASGIILYGYAMGWYRQAPGKARELVAAITWSGGSTYYADSVKGRFTISRDNAKNTVYLQMNSLKPEDTAVYYCAVDVHTSADASLPQEYDYWGQGTQVTVSS”, the “polyreactivity (PSR sort gate)” value is listed as “low polyreactivity”.

For “EEELVESGGGLVQAGGSLRLSCAASGSTFLVYAMGWYRQAPGKERELVAVITSGGRTNYADSVKGRFTISRDNAKNTVYLQMNSLKPEDTAVYYCAVDGRSVPAWWPRFDYWGQGTQVTVSS”, the “polyreactivity (PSR sort gate)” value is listed as “low polyreactivity”.

As to “QVQLEESGGGLVQAGGSLRLSCAASGITFERYVMGWYRQAPGKERELVASISRSGSTYYADSVKGRFTISRDNAKNTVYLQMNSLKPEDTAVYYCNADRFWFHWVYSRYHYDYWGQGTQVTVSS”, the “polyreactivity (PSR sort gate)” value is “high polyreactivity”.

Turning to “QVQLVESGGGLVQAGGSLRLSCAASGSIFYRNAMGWYRQAPGKERELDAAIDSGDSTNYADSVKGRFTISRDNAKNTVYLQMNSLKPEDTAVYYCAARVIYYYGSGPYDYWGQGTQVTVSS”, the “polyreactivity (PSR sort gate)” value was “low polyreactivity”.

“QVQLVESGGGLVQAGGSLRLSCAASGFIFWLYPMGWYRQAPGKERELVAAISSSGGNTYYADSVKGRFTISRDNAKNTVDLQMISLKPEDTAVYYCAASYSYGRTYSGYYWGQGTQVTVSS”: the “polyreactivity (PSR sort gate)” value was “low polyreactivity”.

Take “QVQLVESGGGLVQAGGSLRLSCAASGSIFNYYAMGWSRQAPGKERELVAAITTSGGNTYYADSVKGRFTISRDNAKNNVYLQMNILKPEDTAVYYCNADYRQITSYGFDYWGQGSQVTVSS”: the “polyreactivity (PSR sort gate)” value is recorded as “low polyreactivity”.

“QVQLVESGGGLVQAGGSLRLSCAASGSTFSRYAMGWYRQAPGKEMELVAAITGSGGNTYYADSVKGRFTISRDNAKNTVYLQMNSLKPEDTAVYYCAAEDYVGWYNFEYWGQGTQVTVSS”: the “polyreactivity (PSR sort gate)” value is reported as “high polyreactivity”.

With “QVQLVESGGGLVQAGGSLRLSCAASGRIFQYYAMGRYGQAPGKERELVARISSRGGSTYYADSVKGRFTISRDNAKNTVYLQMNSLKPEDTAVYYCNTRWYSSYYQPSYNYWGQGTQVTVSS”, the “polyreactivity (PSR sort gate)” value is “high polyreactivity”.

For the sequence “QVQLVESGGGLVQAGGSLRLSCAASGSNFDYYAMGWYRQAPGKERELVAAIRVSGGSTYYADSVKGRFTISRDNAKNTVYLQMNSLKPEDTAVCYCASSYYDFNYEYYYWGQGTQVTVSS”, the “polyreactivity (PSR sort gate)” value is “high polyreactivity”.

In the case of “QVQLVESGGGLVQAGGSLRLSCAASGFTFHKNAMGWYRQAPGKERELVAAISRSGGRTYYADSVKGRFTISRDNAKNTVYLQMNSLKPEDTAVYYCNATPLLWAGYDYWGQGTQVTVSS”, the “polyreactivity (PSR sort gate)” value was “high polyreactivity”.

As to “QVQLVESGGGLVQAGGSLRLSCAASGRTFYAYAMGWYRQAPGKERELVAAITSGASTYYADSVKGRFTISRDNAKNTVYLQMFSLKPEDTAVYYCNAEYYEGYIGVPGSFWPYEYWGQGTQVTVSS”, the “polyreactivity (PSR sort gate)” value is listed as “low polyreactivity”.

As for “QDQLVESGGGLVQAVGSLRLSCAASGFTFYRNAMGWYRQAPGKERELVAAITWSGTSTYFADSVKGRFTISRDNAQNTVYLQLNSLKPEDTAVYYCNARGFQKSDPRGYLILNYWGQGTQVTVSS”, the “polyreactivity (PSR sort gate)” value is “high polyreactivity”.

On to “QDQLVESGGGLVQAGGSLRLSCAASGRIFYRYAMGWYRQAPGKERELVATISRSGGSTNYADSVKGRFTISRDNAKKTVYLQLNSLKPEDTAVYYCAAQYTYRFPYPGYATTHDYWGQGTQVTVSS”, for which the “polyreactivity (PSR sort gate)” value is recorded as “high polyreactivity”.

In the case of “QVQLVESGGGLVQAGGSLRLSCAASGITIIHNAMGWYRQAPGKERELVAAITTSDGSTYYADSVKGRFTISRDNAKNTVYLQMNSLKPEDTAVYYCAARGRHSGYYSFPYYYWGQGTQVTVSS”, the “polyreactivity (PSR sort gate)” value is “low polyreactivity”.

With “QVQLVESGGGLVQAGGRLRLSCAASGRIFWTYAMGWYRQAPGKERELVAAISSGGSTNYADSVKGRFTISRDNAKNTVYLQMNSLKPEDTAVYYCAADRWYREYDYWGQGTQVTVSS”, the “polyreactivity (PSR sort gate)” value is “low polyreactivity”.

For the sequence “QVQLVESAGGLVQAGGSLRLSCAASGSIFDAYAMGWYRQAPGKERELVAAIIARGGSTYYADSVKGRFTISRDNAKTTVYLQMISLKPEDTAVSYCNRLSRVRRYIYDYWGQGTQVTVSS”, the “polyreactivity (PSR sort gate)” value is listed as “high polyreactivity”.

As to “QVQLVESGGGLVQAGGSLRLSCAASGFIFPWYAMGGYRQAPRKERELVAAITSGGTTYYADSVKGRFTISRDNAKNTVYLQMNSLKPEDTAVYYCAAQYYFYPHEFDYWGQGTQVTVSS”, the “polyreactivity (PSR sort gate)” value is “low polyreactivity”.

Take “QVQLVESGGGLVQAGGSLRLSCAASGSTFPGYAMGWYRQAPGKERELVAAITWSGVTTYYADTVKGRFTMSRDNAKNTVYIQMNSLKPEDTAVYYCATGTLYSDGAIYGYWGQATQVTVSS”: the “polyreactivity (PSR sort gate)” value is “low polyreactivity”.

Regarding “QVQLVESGGGLVQAGGSLRLSCAASGGTFGPYAMGWYRQAPGKERELVATIRSSGGRTYYADSVKGRFTISRDNAKNTVYFQMNSLKPEDTAVYYCAATEFRYFEGGAYFEGYYWGQGTQVTVSS”, the “polyreactivity (PSR sort gate)” value is listed as “low polyreactivity”.

With “QVQLVESGGGLVQAGGSLRLSCAASGRTFLGYTMGWYRQAPGKEREFVAAITFSGDSTYYADSVKGRFTISRDNAKNTVYLQMNSLKPEDTAVYYCAARKKYYTYLFYYWGQGTQVTVSS”, the “polyreactivity (PSR sort gate)” value is “high polyreactivity”.

For the sequence “QVQLVESGGGLVQAGGSLRLSCAASGITFGYYAMGWYRQAPGKERELVAAITWSGGSTYYADSVKGRFTISRDNAKNTVYLQMNSLKPEDTAVYYCNADRFGRAHVYPEFDYWGQGTQVTVSS”, the “polyreactivity (PSR sort gate)” value is “low polyreactivity”.

As to “QVQLVESGGGLVQAGGSLRLSCAASGFTFYTYTMGWYRQAPGKERELVAVISRSGGSTYYADSVKGLFTISRDNAKNTVYLQMNSLNPEDTAVYYCNAGYWRFIDSFDYWGQRTQVTVSS”, the “polyreactivity (PSR sort gate)” value is “high polyreactivity”.

Consider “QVQLVESGGGLVQAGGSLRLSCAASGITLRRNAMGWYRQAPGKERELVAAISKSGGRTYYADSVKGRFTISRDHAKNTVYLQMNSLKPEDTAVYYCAADVPWAASDYWGQGTQVTVSS”, for which the “polyreactivity (PSR sort gate)” value is “high polyreactivity”.

As to “QDQLVESGGGLVQAGGSLRLSCAASGSTFGYYAMGWYRKAPGKERELVAAITSGASTNYADSVKGRFTISRDNAKNTVYLQMNSLKPEDTAVSYCAAGFQTRTPLNEFDYWGQGTQVTVSS”, the “polyreactivity (PSR sort gate)” value is “low polyreactivity”.

“QVQLVESGGGLVQARGSLRLSCAASGSTFYYNTMGWYRQAPGKERELVAAITSSGGRTYYADSVKGRFTISRDNAKNTVYLQMNSLKPEDTAVYYCAAKRVGSTANRRVTKYDWGQGTQVTVSS”: the “polyreactivity (PSR sort gate)” value is “high polyreactivity”.

On to “QVQLVESWGGLVQAGGSLRLSCDASGSTLYHNVMGWYRQAPGKERDLVASIDTGDSTNYADSVKGRFSISRDNAKNTVYLQMNSLKPEDTAVSYCNADSYTALNNRGYDYWGLGTQVTVSS”, for which the “polyreactivity (PSR sort gate)” value is given as “low polyreactivity”.

In the case of “QVQLVESGGGLVQAGGSLRLSCAASGRTFRPYAMGWYRQAPGKERELDAAIDSSGTSTYYADSVKGRFTISRDNAKNTVYLQMNSLKPEDTAVYYCAKAWPDHWFSRYDYWGQGTQVTVSS”, the “polyreactivity (PSR sort gate)” value is “low polyreactivity”.
